Values of other authors, collected in paper PMC4718210.
Read-outs that look alike come from different tables or passages of the source. One block for each substance: values may come before it.

Tests used:
[1] = molecular target: RXFP2 receptor (Homo sapiens) (UniProt Q8WXD0)
[2] = molecular target: RXFP4 receptor (Homo sapiens) (UniProt Q8TDU9)
[3] = molecular target: RXFP4 receptor (Homo sapiens) (UniProt Q8TDU9); remark: listed apart in the source
[4] = molecular target: TRH1 receptor (Homo sapiens) (UniProt P34981)
Sequence of UniProt P34981 (P34981 whole entry): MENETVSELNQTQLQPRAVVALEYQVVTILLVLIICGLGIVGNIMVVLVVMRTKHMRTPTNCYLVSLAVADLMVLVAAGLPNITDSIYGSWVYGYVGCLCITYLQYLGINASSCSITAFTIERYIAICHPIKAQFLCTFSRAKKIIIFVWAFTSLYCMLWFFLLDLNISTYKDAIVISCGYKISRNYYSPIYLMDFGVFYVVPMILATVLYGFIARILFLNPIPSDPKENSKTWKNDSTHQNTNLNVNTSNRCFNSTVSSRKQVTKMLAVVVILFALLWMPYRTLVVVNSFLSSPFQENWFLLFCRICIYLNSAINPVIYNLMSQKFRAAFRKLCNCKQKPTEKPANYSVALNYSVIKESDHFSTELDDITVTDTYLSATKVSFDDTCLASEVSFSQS

[5] = molecular target: RXFP1 receptor (Homo sapiens) (UniProt Q9HBX9)
Sequence of UniProt Q9HBX9 (Q9HBX9 whole entry): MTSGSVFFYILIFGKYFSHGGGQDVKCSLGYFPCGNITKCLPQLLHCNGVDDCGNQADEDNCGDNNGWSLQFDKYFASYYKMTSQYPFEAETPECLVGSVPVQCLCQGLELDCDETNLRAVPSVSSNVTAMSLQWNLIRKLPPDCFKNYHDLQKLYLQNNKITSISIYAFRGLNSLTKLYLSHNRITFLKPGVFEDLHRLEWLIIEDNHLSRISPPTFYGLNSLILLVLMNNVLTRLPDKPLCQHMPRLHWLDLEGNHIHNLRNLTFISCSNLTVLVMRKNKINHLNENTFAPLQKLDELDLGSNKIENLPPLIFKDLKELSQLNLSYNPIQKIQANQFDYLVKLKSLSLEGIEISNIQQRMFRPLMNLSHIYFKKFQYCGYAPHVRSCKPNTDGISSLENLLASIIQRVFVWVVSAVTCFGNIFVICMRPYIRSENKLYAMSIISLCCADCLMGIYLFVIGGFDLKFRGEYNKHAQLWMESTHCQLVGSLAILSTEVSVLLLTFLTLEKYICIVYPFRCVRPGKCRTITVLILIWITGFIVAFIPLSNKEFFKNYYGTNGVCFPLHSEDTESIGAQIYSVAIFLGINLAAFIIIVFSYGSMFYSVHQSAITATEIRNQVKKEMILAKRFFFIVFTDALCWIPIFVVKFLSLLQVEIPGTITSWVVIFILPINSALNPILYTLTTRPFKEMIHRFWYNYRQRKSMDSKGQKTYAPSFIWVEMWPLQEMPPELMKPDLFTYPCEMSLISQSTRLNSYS

Sequence of UniProt Q8TDU9 (Q8TDU9 whole entry): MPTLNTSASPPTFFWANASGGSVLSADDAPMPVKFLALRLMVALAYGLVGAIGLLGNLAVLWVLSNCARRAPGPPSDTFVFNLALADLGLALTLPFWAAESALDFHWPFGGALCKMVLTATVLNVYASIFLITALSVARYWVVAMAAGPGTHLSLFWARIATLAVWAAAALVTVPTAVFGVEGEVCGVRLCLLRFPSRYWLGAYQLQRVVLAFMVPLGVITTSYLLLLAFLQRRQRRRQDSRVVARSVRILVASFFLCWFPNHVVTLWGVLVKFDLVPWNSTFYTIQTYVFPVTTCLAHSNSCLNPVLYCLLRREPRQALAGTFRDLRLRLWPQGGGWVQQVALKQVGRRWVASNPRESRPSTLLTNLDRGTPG
Sequence of UniProt Q8WXD0 (Q8WXD0 whole entry): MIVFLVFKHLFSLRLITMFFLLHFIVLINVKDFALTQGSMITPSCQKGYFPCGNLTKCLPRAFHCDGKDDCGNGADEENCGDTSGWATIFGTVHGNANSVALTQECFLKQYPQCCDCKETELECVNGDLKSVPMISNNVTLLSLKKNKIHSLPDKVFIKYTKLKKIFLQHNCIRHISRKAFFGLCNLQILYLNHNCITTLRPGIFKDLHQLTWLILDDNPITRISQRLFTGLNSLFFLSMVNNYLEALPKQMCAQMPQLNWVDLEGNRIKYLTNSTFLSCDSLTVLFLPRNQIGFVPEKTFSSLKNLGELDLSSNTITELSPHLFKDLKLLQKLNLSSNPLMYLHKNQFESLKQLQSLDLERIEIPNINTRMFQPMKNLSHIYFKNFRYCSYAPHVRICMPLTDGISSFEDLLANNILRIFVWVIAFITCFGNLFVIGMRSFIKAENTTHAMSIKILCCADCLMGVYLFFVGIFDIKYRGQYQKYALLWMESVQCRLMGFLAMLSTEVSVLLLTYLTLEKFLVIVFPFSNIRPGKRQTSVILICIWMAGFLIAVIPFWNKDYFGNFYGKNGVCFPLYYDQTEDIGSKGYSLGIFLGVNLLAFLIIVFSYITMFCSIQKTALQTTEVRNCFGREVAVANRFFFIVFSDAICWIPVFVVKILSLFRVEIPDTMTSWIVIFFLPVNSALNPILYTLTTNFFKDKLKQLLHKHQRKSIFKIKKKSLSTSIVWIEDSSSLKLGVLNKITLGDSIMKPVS

Kd [1]: 1 nM
Substance: INSL3 (from UniProt P51460)

Kd [2]: 5 nM
Substance: INSL5 (from UniProt Q9WUG6)

Kd [3]: 5.01 nM
Substance: INSL5 (from UniProt Q9Y5Q6)

Kd [4]: 13 nM
Substance: TRH (from UniProt P20396)

Kd [5]: 0.5 nM
Substance: relaxin (from UniProt P04090)
